Values quoted from earlier work in article PMC6826157.

Tests used:
Asp137 = Asp137 (UniProt position 137, SNYFFDTTQGH); assay: kinetics; settings: V/K profile with the natural substrate L-tryptophan (free enzyme plus substrate)
Lys270 = Lys270 (UniProt position 270, AMSAKKDAMVP); assay: kinetics; settings: V/K profile with the natural substrate L-tryptophan (free enzyme plus substrate)

Question: With “Tryptophan indole-lyase (tryptophanase, TIL, EC 4.1.99.1) (Escherichia coli)” as the substance, how does the pKa (Asp137) read?
Answer: The pKa was 6.0 ± 0.2.

Question: And the pKa (Lys270)?
Answer: The pKa was 7.6 ± 0.09.
